In patent publication US20260242478A1 (published 2026):
Where no end group is shown, it is not given here.

B1: Phage-3214 (peptide)
peptide: MAPYCVPSWMCWGF
notes: not shown: pIII filament protein of the bacteriophage
B2: Phage-3220 (peptide)
peptide: IPRACIPAWMCQGF
notes: as for B1
B3: Phage-3223 (peptide)
peptide: PQWMCKPEWMCNGF
notes: as for B1
B4: Phage-3216 (peptide)
peptide: VEPLCVPSWMCQGI
notes: as for B1
B5: Phage-3221 (peptide)
peptide: LQILCKPQWMCEGL
notes: as for B1
B6: Phage-3217 (peptide)
peptide: IELFCKPAWMCDGF
notes: as for B1
B7: Phage-3225 (peptide)
peptide: GEVLCRPIWMCNGF
notes: as for B1
B8: Phage-3218 (peptide)
peptide: DVHLCKPSWMCAGF
modifications: cysteine pairing not given here; also: fused to phage pIII, sequence not given here
notes: as for B1
B9: Phage-3219 (peptide)
peptide: DQVMCKPIWMCEGF
notes: as for B1
B10: Phage-3224 (peptide)
peptide: ITALCKPAWMCDGF
notes: as for B1
B11: Phage-3213 (peptide)
peptide: AIAMCVPSWMCTGL
modifications: cysteine pairing not given here; also: fused to phage pIII, sequence not given here
notes: as for B1
B12: Phage-3215 (peptide)
peptide: LDLRCQPPWMCMGF
notes: as for B1
B13: Phage-3222 (peptide)
peptide: MELKCVPKWMCAGF
modifications: cysteine pairing not given here; also: fused to phage pIII, sequence not given here
notes: as for B1
B14: Phage-3105 (peptide)
peptide: QEIRCEPIWMCWGF
notes: Clonal phage of the peptide-180 library; not shown: pIII filament protein of the bacteriophage, fused to the peptide
B15: Phage-3108 (peptide)
peptide: SEVVCVPTWMCTGF
notes: as for B14
B16: Phage-3113 (peptide)
peptide: NGVVCQPPWMCFGF
notes: as for B14
B17: Phage-3109 (peptide)
peptide: VEAMCKPWWMCEGL
notes: as for B14
B18: Phage-3107 (peptide)
peptide: PVAVCKPEWMCIGF
notes: as for B14
B19: Phage-3110 (peptide)
peptide: VVQLCRPSWMCQGF
notes: as for B14
B20: Phage-3103 (peptide)
peptide: GEILCRPAWMCYGF
notes: as for B14
B21: Phage-3104 (peptide)
peptide: GEVLCRPAWMCSGF
notes: as for B14
B22: Phage-3111 (peptide)
peptide: IEIMCMPRWMCDGF
notes: as for B14
B23: Phage-3112 (peptide)
peptide: EPQMCIPRWMCDGF
notes: as for B14
B24: Phage-3106 (peptide)
peptide: NPMYCKPSWMCEGF
notes: as for B14
B25: Phage-3102 (peptide)
peptide: DFAYCKPEWMCVGF
notes: as for B14
B26: Phage-3114 (peptide)
peptide: VPRYCVPQWMCAAF
notes: as for B14
B27: Phage-3227 (peptide)
peptide: PIVKCSPAWMCSGF
notes: also called Peptide-180 library clone
B28: Phage-3228 (peptide)
peptide: VGHVCLPPWMCTGF
notes: as for B27
B29: Phage-3226 (peptide)
peptide: LTVLCEPAWMCVGF
notes: as for B27
B30: Phage-3231 (peptide)
peptide: VTAYCVPPWMCAVF
notes: as for B27
B31: Phage-3229 (peptide)
peptide: ITPLCSPAWMCQGL
notes: as for B27
B32: Phage-3232 (peptide)
peptide: IVKACKPEWMCVGF
notes: as for B27
B33: Phage-3234 (peptide)
peptide: DGIRCVPNWMCVGF
notes: as for B27
B34: Phage-3230 (peptide)
peptide: LGIYCVPEWMCQGF
notes: as for B27
B35: Phage-3233 (peptide)
peptide: PYAMCEPAWMCSGF
modifications: cysteine pairing not given here; also: fused to phage pIII, fusion site not given here
notes: as for B27
B36: Phage-3235 (peptide)
peptide: VERLCMPEWMCLGF
notes: as for B27

target: T1, PSMA Fab (biotinylated (site not stated)); assay: clonal phage ELISA on biotinylated PSMA Fab captured on neutravidin; anti-M13 HRP detection
T1 construct: Biotinylated PSMA Fab captured on neutravidin coated plates in the phage ELISA; also called Anti-PSMA Fab; 006 PSMA Fab

| Binder | phage binding ELISA signal |
| --- | --- |
| B1 | 1.97 |
| B2 | 1.96 |
| B3 | 1.96 |
| B4 | 1.97 |
| B5 | 1.96 |
| B6 | 1.97 |
| B7 | 1.95 |
| B8 | 1.96 |
| B9 | 1.96 |
| B10 | 1.96 |
| B11 | 1.97 |
| B12 | 1.97 |
| B13 | 1.96 |

target: T2, PSMA Fab (biotinylated (site not stated)); assay: clonal phage supernatant ELISA on PSMA Fab pre-incubated with PSMA antigen as competitor; anti-M13-HRP detection
T2 construct: Biotinylated PSMA Fab captured on neutravidin coated plates for the clonal phage ELISA; also called Anti-PSMA Fab; 006 PSMA Fab

| Binder | Phage binding ELISA signal, Anti-PSMA Fab with PSMA antigen |
| --- | --- |
| B14 | 0.147 |
| B15 | 0.0805 |
| B16 | 0.0794 |
| B17 | 0.0719 |
| B18 | 0.105 |
| B19 | 0.281 |
| B20 | 0.119 |
| B21 | 0.11 |
| B22 | 0.101 |
| B23 | 0.135 |
| B24 | 0.0958 |
| B25 | 0.0844 |
| B26 | 0.0864 |

target: T2, PSMA Fab; assay: clonal phage supernatant ELISA on biotinylated PSMA Fab captured on neutravidin; anti-M13-HRP detection
Procedure: (§1) Clonal phage were harvested as crude supernatants and screened via standard ELISAs. […] Prior to the addition of clonal phage. wells were incubated with blocking buffer and PSMA antigen or blocking buffer alone. Without washing or aspirating, clonal phage supernatants were then added to the wells and incubated for a short time. Wells were then washed followed by detection of bound phage using a horse radish conjugated anti-M13 antibody.

| Binder | Phage binding ELISA signal, Anti-PSMA Fab |
| --- | --- |
| B14 | 2.09 |
| B15 | 2.08 |
| B16 | 2.08 |
| B17 | 2.08 |
| B18 | 2.08 |
| B19 | 2.08 |
| B20 | 2.09 |
| B21 | 2.09 |
| B22 | 2.08 |
| B23 | 2.08 |
| B24 | 2.08 |
| B25 | 2.09 |
| B26 | 2.08 |

target: T3, PSMA Fab (biotinylated (site not stated)); assay: clonal phage ELISA; biotinylated PSMA Fab on neutravidin plate, wells pre-incubated with PSMA antigen as competitor; anti-M13 HRP detection;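 further: crude clonal phage supernatants added to antigen-treated wells without a wash, incubated briefly, then bound phage read out via horse radish–conjugated anti-M13 antibody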
T3 construct: The panning ELISA names only 'biotinylated PSMA Fab' captured on neutravidin coated plates; also called Anti-PSMA Fab; 006 PSMA Fab

| Binder | Phage binding ELISA signal, Anti-PSMA Fab with PSMA antigen |
| --- | --- |
| B27 | 0.0757 |
| B28 | 0.0697 |
| B29 | 0.0827 |
| B30 | 0.102 |
| B31 | 0.055 |
| B32 | 0.0754 |
| B33 | 0.0969 |
| B34 | 0.0818 |
| B35 | 0.0697 |
| B36 | 0.126 |

target: T1, PSMA Fab; assay: clonal phage ELISA on plate-bound PSMA Fab pre-incubated with PSMA antigen as competitor
Procedure: as §1

| Binder | phage binding ELISA signal |
| --- | --- |
| B1 | 0.145 |
| B2 | 0.101 |
| B3 | 0.0807 |
| B4 | 0.076 |
| B5 | 0.0882 |
| B6 | 0.111 |
| B7 | 0.123 |
| B8 | 0.0706 |
| B9 | 0.0928 |
| B10 | 0.109 |
| B11 | 0.0711 |
| B12 | 0.0778 |
| B13 | 0.0684 |

target: T3, PSMA Fab; assay: clonal phage ELISA; biotinylated PSMA Fab on neutravidin plate, blocking buffer alone; anti-M13 HRP detection;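 further: crude clonal phage supernatants added without washing to wells pretreated with blocking buffer with or without PSMA antigen, short incubation, then washed before detecting bound phage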
Procedure: as §1

| Binder | Phage binding ELISA signal, Anti-PSMA Fab |
| --- | --- |
| B27 | 1.95 |
| B28 | 1.95 |
| B29 | 1.95 |
| B30 | 1.95 |
| B31 | 1.95 |
| B32 | 1.95 |
| B33 | 1.95 |
| B34 | 1.95 |
| B35 | 1.95 |
| B36 | 1.95 |
